# From patent US20230348564A1, “ANTI-CANCER PROTEINS” (UNICHEM LABORATORIES LTD, priority 2020, published 2023)
# B1: SEQ ID NO. 2: recombinant lectin; variant of the S. rolfsii lectin amino acid sequence (reported as Rec-2 in WO 2010/095143) (protein)
# chain: TYKITVRVYQTNPDAFFHPVEKTVWKYANGGTWTITDDQHVLTMGGSGTSGTLRFHADNGESFTATFGVHNYKRWCDIVTNLAADETGMVINQQYYSQKNREEARERQLSNYQVKNAKGRNFQIVYTEAEGNDLHANLIIG
# modifications: In vitro synthesis
# Tested on: Glioma (C6)
# Assay: cytotoxicity in Brain Tumor Cell lines by MTT assay
# Type: cell-based, Rat
# Settings: 72 h
# Protocol: The SEQ ID NO. […] Untreated cells were used as control. […] Cells were incubated for 3 h at 37° C.
molecule,measurement,setting,value
B1,% of cytotoxicity,2.5 μg/mL-100 μg/mL,18.8-48.3%
same,IC50 Value,,>100 µg/mL
